Assay results reported in publication PMC4772074 (Biochemistry, 2015).

Target: the molecule itself
Experiment: SEC-MALS

B1: E. coli CheA (enzyme)
chain: MSMDISDFYQTFFDEADELLADMEQHLLVLQPEAPDAEQLNAIFRAAHSIKGGAGTFGFSVLQETTHLMENLLDEARRGEMQLNTDIINLFLETKDIMQEQLDAYKQSQEPDAASFDYICQALRQLALEAKGETPSAVTRLSVVAKSEPQDEQSRSQSPRRIILSRLKAGEVDLLEEELGHLTTLTDVVKGADSLSAILPGDIAEDDITAVLCFVIEADQITFETVEVSPKISTPPVLKLAAEQAPTGRVEREKTTRSNESTSIRVAVEKVDQLINLVGELVITQSMLAQRSSELDPVNHGDLITSMGQLQRNARDLQESVMSIRMMPMEYVFSRYPRLVRDLAGKLGKQVELTLVGSSTELDKSLIERIIDPLTHLVRNSLDHGIELPEKRLAAGKNSVGNLILSAEHQGGNICIEVTDDGAGLNRERILAKAASQGLTVSENMSDDEVAMLIFAPGFSTAEQVTDVSGRGVGMDVVKRNIQKMGGHVEIQSKQGTGTTIRILLPLTLAILDGMSVRVADEVFILPLNAVMESLQPREADLHPLAGGERVLEVRGEYLPIVELWKVFNVAGAKTEATQGIVVILQSGGRRYALLVDQLIGQHQVVVKNLESNYRKVPGISAATILGDGSVALIVDVSALQAINREQRMANTAA
**Q.** Which “stoichiometry N” value does the source give for B1 here?
**A.** 2
